Test results from the RNAGym collection of RNA variant scans (doi:10.7554/elife.80360).

B1: Hammerhead Ribozyme (parent)
chain: ACCGGAUGUGCUUUCCGGUCUGAUGAGUCCGUGAGGACGAAACAG

Variants of: B1
Assay: self-cleavage, relative activity (ratio to wild type); higher = more cleavage; co-transcriptional
Work on ACCGGAUGUGCUUCCCGGUCUGAUGAGUCCGUGAGGACGAAACAU yielded a self-cleavage of 0.485.
In the case of AGCGGAUGUGCUUUCCGGUCUGAUGAAUCCGUGAGGACGAAACAG, the self-cleavage is reported as 0.282.
For ACCGGAUGUGCUUUCCGGUCCGUUGAGUCCGUGAGGACGAAACAG, the self-cleavage was 0.708.
In the case of ACCGGAUGUGCUUUUCGGUCUGAUGAGUCCUUGAGGACGAAACAG, the self-cleavage is reported as 0.881.
Variant ACCGGAUCUGCUUUCCGGUCUGAUGAAUCCGUGAGGACGAAACAG has a self-cleavage of 0.787.
Work on ACCGGAUGUGGUUUCUGGUCUGAUGAGUCCGUGAGGACGAAACAG yielded a self-cleavage of 1.23.
For ACCGGAUGUCCUUUCCGGUCUGAUGAGUCCGUGAGGACGAAACAU, the self-cleavage was 0.812.
Work on ACAGGAUGUGCUUUCCGGUCUGAUGAGUCUGUGAGGACGAAACAG yielded a self-cleavage of 0.772.
GCCGGAUGUGCUUUCCGGUCUGAUGAGUCCGUGAGGACGAAACGG gave a self-cleavage of 2.11.
For GCCGGAUGUGCUUUCCGGUCUGAUGAGUCCGUGAGGAUGAAACAG, the self-cleavage was 1.49.
AACGGAUGUGCUUUCCGGUCUGAUGAGUCCGUGAGGACGAAGCAG gave a self-cleavage of 0.344.
With ACCGGAUGUGCUUUCCGGUCUGAUGAGUCGGUGAGGACGAAGCAG the self-cleavage was 0.316.
ACCGGAUGUUCGUUCCGGUCUGAUGAGUCCGUGAGGACGAAACAG gave a self-cleavage of 0.773.
Work on ACCGGAUGUACUUUCCGGUCUGAUCAGUCCGUGAGGACGAAACAG yielded a self-cleavage of 0.362.
With ACCGGAUGUGCUUACCGGUCUGAUGAGUACGUGAGGACGAAACAG the self-cleavage was 0.608.
For ACCGGAUGUGCUUUCCGGUCUGAUGAGUCCGUGAGUACAAAACAG, the self-cleavage was 0.352.
ACCGGAGGUGCUUUCCGGUCUGAUGAGUCCGUGAGGCCGAAACAG gave a self-cleavage of 1.29.
For ACCGGAUGUGCUGUCCGGUCUGAUGAGUCCGUGAGGAGGAAACAG, the self-cleavage was 0.531.
In the case of ACCGGAUGUGCUUUCCGGUCUGAUGAGUUCGUGAGGUCGAAACAG, the self-cleavage is reported as 0.371.
For ACAGGAUGUGCUUUCCGGUCUGACGAGUCCGUGAGGACGAAACAG, the self-cleavage was 0.94.
Variant ACCGGAUGUGCUUUCCGGUCUGAUGUGUCCGUGAGGAUGAAACAG has a self-cleavage of 0.783.
Variant ACCGGAUGUGCUUUCCGGUCUGAUGAGUCCGGGAGCACGAAACAG has a self-cleavage of 0.464.
ACCGGAUGUGCCUUCCGGUCUGAUGAGUCCGUGCGGACGAAACAG gave a self-cleavage of 0.877.
Variant ACCGGAUGUGCUUGCCGGUCUGUUGAGUCCGUGAGGACGAAACAG has a self-cleavage of 0.256.
ACCGGAUGUGCUUUCCGGUCUCAUGAGUUCGUGAGGACGAAACAG showed a self-cleavage of 0.3.
Work on ACAGGGUGUGCUUUCCGGUCUGAUGAGUCCGUGAGGACGAAACAG yielded a self-cleavage of 0.366.
In the case of ACCGGAUGUGCUUUCCGGUGUAAUGAGUCCGUGAGGACGAAACAG, the self-cleavage is reported as 0.252.
ACCGGACGUGCUUUCCGGUCUGAUGAGUCCGUGAGGACGAGACAG showed a self-cleavage of 0.322.
ACCGGAUGUGCUUUCCGGGCUGAUGAGUCCAUGAGGACGAAACAG showed a self-cleavage of 0.553.
Variant ACCGGAUGUGCUUUCCGGUCUGAUGAGUCCGAGAGGACUAAACAG has a self-cleavage of 0.366.
ACCGGAUGUGCUUUCCGGUCGGAUGAGUCCGUGAGGACUAAACAG showed a self-cleavage of 0.37.
For ACCGGAUCUGCUUUCCGGUCUGGUGAGUCCGUGAGGACGAAACAG, the self-cleavage was 0.376.
With ACCGGAUGUGCUUUCCGGUCUGAUGAGUCCGUCAGGACGAAACUG the self-cleavage was 0.512.
With ACCUGAUGUGCUUUCCGGUCUGAUGAGUCCGUGAGGACGAAACAC the self-cleavage was 0.324.
Work on ACCGGAUGCGCUCUCCGGUCUGAUGAGUCCGUGAGGACGAAACAG yielded a self-cleavage of 0.843.
In the case of ACCGCAUGUACUUUCCGGUCUGAUGAGUCCGUGAGGACGAAACAG, the self-cleavage is reported as 0.638.
Work on ACCGGAUGUGCUAUGCGGUCUGAUGAGUCCGUGAGGACGAAACAG yielded a self-cleavage of 0.895.
Variant ACCGGAUGUGCUUUACGGUCUGAUGAGUCCGUGAGGACGAAACAC has a self-cleavage of 0.44.
With ACGGGAUGUGCUUUCCGGUCUGAUGAGUCCGUGAGGACUAAACAG the self-cleavage was 0.284.
In the case of ACCGGAUGUGUGUUCCGGUCUGAUGAGUCCGUGAGGACGAAACAG, the self-cleavage is reported as 1.18.
Work on ACCGGAUGUGCUUUCCGGUCUGAUGUGUCCGUGAGGACGAAUCAG yielded a self-cleavage of 0.261.
With ACCGGAUGUGCUUUCCGGUCUGAUGUGUCCGUGAGGACGAACCAG the self-cleavage was 0.293.
Work on ACCGGAUGUGCUUUCCGGUUUGAUGAGUCCGUGAGGACAAAACAG yielded a self-cleavage of 0.383.
With ACCGGAUGUGCUUUCCGGACUGAUGAGUCCGUGAGGAGGAAACAG the self-cleavage was 0.365.
With ACCGGAUGUGUUUUCCGGUCUGAUGAGUCCGUGAGGACGAAAGAG the self-cleavage was 0.392.
Variant ACCGGAUGUGCUGACCGGUCUGAUGAGUCCGUGAGGACGAAACAG has a self-cleavage of 0.428.
Variant ACCGGAUGUCCAUUCCGGUCUGAUGAGUCCGUGAGGACGAAACAG has a self-cleavage of 0.954.
Work on ACCGGAUCUGCUUUCCGGUCUGAUGAGUCCGUGAGUACGAAACAG yielded a self-cleavage of 0.772.
In the case of ACCGGAUGUGGUUUCCGGUCUGAUGAGUCCCUGAGGACGAAACAG, the self-cleavage is reported as 0.83.
With ACCGGACCUGCUUUCCGGUCUGAUGAGUCCGUGAGGACGAAACAG the self-cleavage was 0.961.
With ACCGCAUGUGCUUUCCGGUCUGAUGAGUCCGUGAGGACGGAACAG the self-cleavage was 0.237.
In the case of ACCGGAAGUGCUUUUCGGUCUGAUGAGUCCGUGAGGACGAAACAG, the self-cleavage is reported as 1.04.
For ACCGGAUAUGCUUCCCGGUCUGAUGAGUCCGUGAGGACGAAACAG, the self-cleavage was 0.975.
In the case of ACCGGGUGUGCUUUCCGGUCUGAUGAGUCCGUGUGGACGAAACAG, the self-cleavage is reported as 0.82.
For ACCGGAUGUUCUUUCCGGUCUGACGAGUCCGUGAGGACGAAACAG, the self-cleavage was 1.13.
ACCGGAUGUGGUUUACGGUCUGAUGAGUCCGUGAGGACGAAACAG gave a self-cleavage of 0.824.
With ACCGGAUGUGCUUUCCGGUGUGAUGAGUUCGUGAGGACGAAACAG the self-cleavage was 0.336.
